In patent US20230348614A1 (VISTERRA, published 2023):
Positions count from the first letter of the chain named.

Key:
A168S = target: T1, A168S (Homo sapiens, UniProt P18827); test: alanine scan: flow cytometry on HEK-293T cells expressing the mutant clone, 4320 Fab 0.50 ug/mL, normalised to WT CD138; Range %WT Binding 3; Normalized 4320 vs. BB4 57.9
T1 construct: clone of the alanine scanning library on HEK-293T cells; m17 with one substitution (alanine changed to serine); also called CD138 A168S
T1 sequence (CD138 (SDC1), full length, point mutant, looked up): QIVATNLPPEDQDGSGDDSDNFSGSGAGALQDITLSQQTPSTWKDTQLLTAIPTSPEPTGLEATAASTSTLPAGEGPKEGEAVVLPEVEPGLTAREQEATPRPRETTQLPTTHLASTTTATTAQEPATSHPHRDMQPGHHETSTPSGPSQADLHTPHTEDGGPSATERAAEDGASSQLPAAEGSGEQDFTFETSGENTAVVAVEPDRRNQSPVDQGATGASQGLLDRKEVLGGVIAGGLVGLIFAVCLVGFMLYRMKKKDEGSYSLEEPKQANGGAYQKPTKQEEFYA
Experimental: (§1) Serial dilutions of each MAb were tested for immunoreactivity against cells expressing target protein (WT) or vector alone. Validation of target expression and optimization of detection and binding of anti-CD138 antibodies both by flow cytometry was completed in replicate (N=4). The optimal screening concentration for each MAb was determined based on the raw signal values and signal-to-background calculations specifically optimized for each test article. Optimized parameters included the use of 10% goat serum as blocking reagent. Primary antibody staining was for 60 minutes at 25° C. Wash buffer include phosphate buffered saline (divalent metal ion free), pH 7.4. […] Secondary antibodies were diluted 1:400 and incubated for 30 minutes at 25° C.
(§2) Library screens of very-high-affinity mAbs can fail to yield critical residues for antibody binding due to deficiencies of such an assay to detect and differentiate critical vs. less critical binding based on affinity and quantification of cell binding. One common approach in the literature is the use of monovalent antibody derived fragments such as Fab usually weakens binding sufficiently to allow identification of critical residues for binding. […] Binding of each test Ab to each mutant clone in the alanine scanning library was determined, in duplicate, and likewise evaluated by flow cytometry.

R117A = target: T2, R117A (Homo sapiens, UniProt P18827); test: alanine scan: flow cytometry on HEK-293T cells expressing the mutant clone, 4320 Fab 0.50 ug/mL, normalised to WT CD138; Range %WT Binding 13; Normalized 4320 vs. BB4 14.8
T2 construct: clone of the alanine scanning library on HEK-293T cells; m17 with one substitution; also called CD138 R117A
T2 sequence (CD138 (SDC1), full length, point mutant, looked up): T1 sequence (CD138 (SDC1), full length, point mutant, looked up) with R95A, S146A
Experimental: as §1, §2

P167A = target: T3, P167A (Homo sapiens, UniProt P18827); test: alanine scan: flow cytometry on HEK-293T cells expressing the mutant clone, 4320 Fab 0.50 ug/mL, normalised to WT CD138; Range %WT Binding 46; Normalized 4320 vs. BB4 50.9
T3 construct: clone of the alanine scanning library on HEK-293T cells; m17 with one substitution; also called CD138 P167A
T3 sequence (CD138 (SDC1), full length, point mutant, looked up): T1 sequence (CD138 (SDC1), full length, point mutant, looked up) with P145A, S146A
Experimental: as §1, §2

V110A = target: T4, V110A (Homo sapiens, UniProt P18827); test: alanine scan: flow cytometry on HEK-293T cells expressing the mutant clone, 4320 Fab 0.50 ug/mL, normalised to WT CD138; Range %WT Binding 2; Normalized 4320 vs. BB4 28.3
T4 construct: clone of the alanine scanning library on HEK-293T cells; m17 with one substitution; also called CD138 V110A
T4 sequence (CD138 (SDC1), full length, point mutant, looked up): T1 sequence (CD138 (SDC1), full length, point mutant, looked up) with V88A, S146A
Experimental: as §1, §2

G160A = target: T5, G160A (Homo sapiens, UniProt P18827); test: alanine scan: flow cytometry on HEK-293T cells expressing the mutant clone, 4320 Fab 0.50 ug/mL, normalised to WT CD138; Range %WT Binding 24; Normalized 4320 vs. BB4 60.2
T5 construct: clone of the alanine scanning library on HEK-293T cells; m17 with one substitution; also called CD138 G160A
T5 sequence (CD138 (SDC1), full length, point mutant, looked up): T1 sequence (CD138 (SDC1), full length, point mutant, looked up) with G138A, S146A
Experimental: as §1, §2

B1: Fab fragment of mAb 4320 (Fab, V domains shown)
VH: QVQLVQSGAEVKKPGASVKVSCKASGYSFSSYYMHWVRQAPGQGLEWMGTIHPSDSTTNYNQKFQGRVTMTVDTSTRTAYMELSSLRSEDTAVYYCANFVYWGQGTTVTVSS
VL: DIVMTQTPLSLSVTPGQPASISCKSSKSLLYKDGKTYLNWFLQKPGQSPQLLIYVVSTRASGVPDRFSGSGSGTDFTLKISRVEAEDVGVYYCQQLVEYPYTFGQGTKLEIKR
modifications: N-terminal Q1 observed as pyroglutamic acid (PCA) in the 138-2-5 complex
notes: In the crystal structures heavy chain residues 1-213 were traced; also called Fab4320
Mean %WT Binding (A168S): 44.9 %WT
Mean %WT Binding (R117A): 14.4 %WT
Mean %WT Binding (P167A): 56.4 %WT
Mean %WT Binding (V110A): 21.9 %WT
Mean %WT Binding (G160A): 59.7 %WT
